This assay has as its target bovine trypsin (bovine, UniProt P00760). Nature of the assay: equilibrium dissociation constants (Ki) from enzyme inhibition.

B1: recombinant leech-derived tryptase inhibitor form C, secreted by Saccharomyces cerevisiae (strain S-78 with pRM 9.1.4) (other)
chain: KKVCACPKILKPVCGSDGRTYANSCIARCNGVSIKSEGSCPTGILN
B1: the binding result is listed as “binds”.

Source of the values: patent publication US5972698 (Novartis Corporation, dated 1999).
